Series [1] in a line: western blot of cell lysates. Conditions: glycan changed form; control: MDA/vec. (Immunoblotting shows a protein as a band on a membrane.)
Series [2] in a line: western blot of β1 in purified sEVs. Conditions: glycan changed form; control: vec-sEVs.

Regarding integrin β1: MGAT3 overexpression, the expression_or_secretion result in series [1] is “no change”. In addition, the localisation_or_trafficking result in series [2] is listed as “no change”.

For the origin of these results see paper PMC7710122.
